From US20240124607A1 (Merck Sharp & Dohme, published 2024)

Columns and labels:
Human CEACAM5 I113T = target: T1, Human CEACAM5 I113T (human, UniProt P06731 35-685, limits assumed); assay: SPR, 37C, pH 7.4; reference E398
T1 sequence: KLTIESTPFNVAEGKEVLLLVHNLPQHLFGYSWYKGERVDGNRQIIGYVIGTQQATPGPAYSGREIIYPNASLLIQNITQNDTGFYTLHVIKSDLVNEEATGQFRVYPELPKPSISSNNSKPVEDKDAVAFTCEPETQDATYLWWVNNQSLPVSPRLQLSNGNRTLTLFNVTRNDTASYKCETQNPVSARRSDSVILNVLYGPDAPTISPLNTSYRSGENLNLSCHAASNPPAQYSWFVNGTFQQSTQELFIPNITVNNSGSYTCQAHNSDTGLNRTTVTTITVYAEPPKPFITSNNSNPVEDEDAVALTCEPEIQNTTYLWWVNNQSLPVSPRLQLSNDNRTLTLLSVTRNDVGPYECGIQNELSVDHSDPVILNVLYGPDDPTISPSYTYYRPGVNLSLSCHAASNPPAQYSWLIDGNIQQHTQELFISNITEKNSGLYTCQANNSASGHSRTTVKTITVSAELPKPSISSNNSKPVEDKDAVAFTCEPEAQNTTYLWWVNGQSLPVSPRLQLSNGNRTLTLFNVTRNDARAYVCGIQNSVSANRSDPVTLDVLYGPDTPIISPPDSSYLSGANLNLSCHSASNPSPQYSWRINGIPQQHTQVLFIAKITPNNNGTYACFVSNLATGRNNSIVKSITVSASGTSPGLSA

Human CEACAM5 (K398) = target: T2, Human CEACAM5 (K398) (human, UniProt P06731 35-685, limits assumed); assay: SPR, 37C, pH 7.4; reference E398
T2 construct: also called K398 allele
T2 sequence: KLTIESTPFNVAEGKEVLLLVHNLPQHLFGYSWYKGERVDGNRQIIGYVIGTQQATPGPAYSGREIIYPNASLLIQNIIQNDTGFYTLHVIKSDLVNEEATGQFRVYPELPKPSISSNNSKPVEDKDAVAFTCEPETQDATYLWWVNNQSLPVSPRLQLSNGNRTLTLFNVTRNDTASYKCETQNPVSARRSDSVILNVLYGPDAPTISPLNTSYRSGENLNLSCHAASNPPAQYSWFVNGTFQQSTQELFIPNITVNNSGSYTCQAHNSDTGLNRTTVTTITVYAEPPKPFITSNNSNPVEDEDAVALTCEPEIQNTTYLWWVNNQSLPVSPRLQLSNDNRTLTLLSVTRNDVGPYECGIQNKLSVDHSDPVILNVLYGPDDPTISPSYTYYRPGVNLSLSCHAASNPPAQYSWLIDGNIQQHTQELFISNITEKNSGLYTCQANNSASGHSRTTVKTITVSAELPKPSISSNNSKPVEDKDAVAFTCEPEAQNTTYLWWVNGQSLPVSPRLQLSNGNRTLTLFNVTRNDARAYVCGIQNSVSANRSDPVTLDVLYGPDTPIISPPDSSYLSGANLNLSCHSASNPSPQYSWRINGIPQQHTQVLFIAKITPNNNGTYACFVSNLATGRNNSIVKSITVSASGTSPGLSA

Cyno NKG2D-mFc = target: T3, Cyno NKG2D-mFc (cynomolgus monkey, UniProt P61252 78-216, limits assumed); assay: SPR, NKG2D-mFc captured, 37C, pH 7.4
T3 construct: also called cynomolgus NKG2D fused to a mouse Fc
T3 sequence (looked up): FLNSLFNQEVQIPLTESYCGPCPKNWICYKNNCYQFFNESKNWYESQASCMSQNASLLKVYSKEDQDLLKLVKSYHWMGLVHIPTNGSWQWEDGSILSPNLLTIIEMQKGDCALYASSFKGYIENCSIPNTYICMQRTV
Method: (§1) Binding to NKG2D was assessed by SPR using a mouse Fc capture kit (Cytiva, #BR100838) immobilized onto a CM5 chip. Human and cynomolgus NKG2D fused to a mouse Fc were captured and AB0411, AB0466, or AB0621 was titrated from 600 nM.

[1] = target: T4, soluble mouse Fc-human NKG2D dimer (human, UniProt P26718 78-216, limits assumed); assay: SPR, NKG2D-mFc captured, 37C, pH 7.4
T4 construct: also called NKG2D-mFc; human NKG2D fused to a mouse Fc
T4 sequence (looked up): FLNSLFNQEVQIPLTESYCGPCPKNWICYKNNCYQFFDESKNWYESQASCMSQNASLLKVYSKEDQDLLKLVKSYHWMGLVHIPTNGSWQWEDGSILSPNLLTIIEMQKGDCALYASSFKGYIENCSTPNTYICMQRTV
Method: as §1

[2] = target: T5, human CEACAM6 on Ba/F3 cells (human, UniProt P40199 35-320); assay: flow cytometry on Ba/F3 cells expressing human CEACAM6, fold over background (FOB), 5-fold dilutions from 1600 nM
T5 construct: whole, on cells
T5 sequence (looked up): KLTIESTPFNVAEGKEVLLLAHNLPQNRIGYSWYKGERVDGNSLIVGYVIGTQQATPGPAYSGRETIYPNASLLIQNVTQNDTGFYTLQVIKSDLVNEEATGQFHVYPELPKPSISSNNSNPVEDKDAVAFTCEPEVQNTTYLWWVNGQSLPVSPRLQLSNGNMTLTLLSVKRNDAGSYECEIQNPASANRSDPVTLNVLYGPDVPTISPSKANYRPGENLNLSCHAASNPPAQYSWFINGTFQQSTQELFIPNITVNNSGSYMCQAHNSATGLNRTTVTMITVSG
Method: To examine the binding specificity of the TriNKETs to CEACAM5 compared to other CEACAM family members, Ba/F3 cells were engineered to express one of human CEACAM1, CEACAM6, CEACAM8, or cynomolgus CEACAM5. CEACAM5 TriNKETs were evaluated by flow cytometry starting at 1600 nM followed by 7 5-fold dilutions.

B1: AB0466 F3' CEACAM5 TriNKET (bispecific antibody, human IgG1, kappa)
chain: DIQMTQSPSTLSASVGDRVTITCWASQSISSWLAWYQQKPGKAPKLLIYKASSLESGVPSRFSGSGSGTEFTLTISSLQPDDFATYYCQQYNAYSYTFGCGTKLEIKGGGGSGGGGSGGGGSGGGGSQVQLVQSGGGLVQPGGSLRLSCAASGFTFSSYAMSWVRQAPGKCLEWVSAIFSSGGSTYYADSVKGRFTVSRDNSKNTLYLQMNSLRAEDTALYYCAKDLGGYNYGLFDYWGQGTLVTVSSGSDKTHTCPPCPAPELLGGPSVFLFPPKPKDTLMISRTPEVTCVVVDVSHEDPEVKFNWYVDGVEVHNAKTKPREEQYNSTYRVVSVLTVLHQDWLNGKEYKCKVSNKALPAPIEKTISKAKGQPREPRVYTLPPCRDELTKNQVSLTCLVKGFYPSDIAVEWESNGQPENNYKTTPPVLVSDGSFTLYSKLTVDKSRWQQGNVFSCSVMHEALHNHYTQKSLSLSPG
heavy: EVQLVESGGGLVKPGGSLRLSCAASGFTFSSYSMNWVRQAPGKGLEWVSSISSSSSYIYYADSVKGRFTISRDNAKNSLYLQMNSLRAEDTAVYYCARGAPIGAAAGWFDPWGQGTLVTVSSASTKGPSVFPLAPSSKSTSGGTAALGCLVKDYFPEPVTVSWNSGALTSGVHTFPAVLQSSGLYSLSSVVTVPSSSLGTQTYICNVNHKPSNTKVDKKVEPKSCDKTHTCPPCPAPELLGGPSVFLFPPKPKDTLMISRTPEVTCVVVDVSHEDPEVKFNWYVDGVEVHNAKTKPREEQYNSTYRVVSVLTVLHQDWLNGKEYKCKVSNKALPAPIEKTISKAKGQPREPQVCTLPPSRDELTENQVSLTCLVKGFYPSDIAVEWESNGQPENNYKTTPPVLDSDGSFFLYSWLTVDKSRWQQGNVFSCSVMHEALHNHYTQKSLSLSPG
light: DIQMTQSPSSVSASVGDRVTITCRASQGISSWLAWYQQKPGKAPKLLIYAASSLQSGVPSRFSGSGSGTDFTLTISSLQPEDFATYYCQQGVSFPRTFGGGTKVEIKRTVAAPSVFIFPPSDEQLKSGTASVVCLLNNFYPREAKVQWKVDNALQSGNSQESVTEQDSKDSTYSLSSTLTLSKADYEKHKVYACEVTHQGLSSPVTKSFNRGEC
Human CEACAM5 I113T
  KD/KD(Ref): 1.2 fold
Human CEACAM5 (K398)
  KD/KD(Ref): 0.9 fold
Cyno NKG2D-mFc
  Kd: 750 nM
  koff: 0.18 s⁻¹
  kon: 230000 M⁻¹ s⁻¹
[1]
  Kd: 680 nM
  koff: 0.16 s⁻¹
  kon: 240000 M⁻¹ s⁻¹
[2]
  binding result: no binding (tested: 1600 nM)

B2: AB0411 F3' CEACAM5 TriNKET (bispecific antibody, human IgG1, kappa)
chain: DIQLTQSPATLSVSPGERATLSCRASQSVSSSYLAWYQQKPGQAPRLLIYGASSRATGIPDRFSGSGSGTDFTLTISRLEPEDFAVYYCQQYNNWPLTFGCGTKVEIKGGGGSGGGGSGGGGSGGGGSQVQLVQSGGGLVQPGGSLRLSCAASGFTFTSYAMSWVRQAPGKCLEWVSAISGTGDSTFYADSVKGRFTFSRDNSKNTLYLQMNSLRAEDTAVYYCAKDLGWLQYGLFDYWGQGTLVTVSSGSDKTHTCPPCPAPELLGGPSVFLFPPKPKDTLMISRTPEVTCVVVDVSHEDPEVKFNWYVDGVEVHNAKTKPREEQYNSTYRVVSVLTVLHQDWLNGKEYKCKVSNKALPAPIEKTISKAKGQPREPRVYTLPPCRDELTKNQVSLTCLVKGFYPSDIAVEWESNGQPENNYKTTPPVLVSDGSFTLYSKLTVDKSRWQQGNVFSCSVMHEALHNHYTQKSLSLSPG
heavy: EVQLVESGGGLVKPGGSLRLSCAASGFTFSSYSMNWVRQAPGKGLEWVSSISSSSSYIYYADSVKGRFTISRDNAKNSLYLQMNSLRAEDTAVYYCARGAPIGAAAGWFDPWGQGTLVTVSSASTKGPSVFPLAPSSKSTSGGTAALGCLVKDYFPEPVTVSWNSGALTSGVHTFPAVLQSSGLYSLSSVVTVPSSSLGTQTYICNVNHKPSNTKVDKKVEPKSCDKTHTCPPCPAPELLGGPSVFLFPPKPKDTLMISRTPEVTCVVVDVSHEDPEVKFNWYVDGVEVHNAKTKPREEQYNSTYRVVSVLTVLHQDWLNGKEYKCKVSNKALPAPIEKTISKAKGQPREPQVCTLPPSRDELTENQVSLTCLVKGFYPSDIAVEWESNGQPENNYKTTPPVLDSDGSFFLYSWLTVDKSRWQQGNVFSCSVMHEALHNHYTQKSLSLSPG
light: DIQMTQSPSSVSASVGDRVTITCRASQGISSWLAWYQQKPGKAPKLLIYAASSLQSGVPSRFSGSGSGTDFTLTISSLQPEDFATYYCQQGVSFPRTFGGGTKVEIKRTVAAPSVFIFPPSDEQLKSGTASVVCLLNNFYPREAKVQWKVDNALQSGNSQESVTEQDSKDSTYSLSSTLTLSKADYEKHKVYACEVTHQGLSSPVTKSFNRGEC
Human CEACAM5 I113T
  KD/KD(Ref): 1.1 fold
Human CEACAM5 (K398)
  KD/KD(Ref): 0.9 fold
Cyno NKG2D-mFc
  Kd: 590 nM
  koff: 0.15 s⁻¹
  kon: 260000 M⁻¹ s⁻¹
[1]
  Kd: 490 nM
  koff: 0.12 s⁻¹
  kon: 250000 M⁻¹ s⁻¹

B3: AB0264 F3' CEACAM5 TriNKET (bispecific antibody, human IgG1, kappa)
chain: DIVMTQSPDSLAVSLGERATINCKSSHSLLYGNFQNNYLAWYQQKPGQPPKLLIYWASTRESGVPDRFSGSGSGTDFTLTISSLQAEDVAVYYCQQYYSYPYTFGCGTKLEIKGGGGSGGGGSGGGGSGGGGSQVQLVQSGAEVKKPGASVKVSCKASGYTFTAYTIHWVRQAPGQCLEWMGYINPSSGYTEYNQKFKDRTTLTADTSIPTAYMELSRLRSDDTAVYYCTREGGLLWFDYWGQGTLVTVSSGSDKTHTCPPCPAPELLGGPSVFLFPPKPKDTLMISRTPEVTCVVVDVSHEDPEVKFNWYVDGVEVHNAKTKPREEQYNSTYRVVSVLTVLHQDWLNGKEYKCKVSNKALPAPIEKTISKAKGQPREPRVYTLPPCRDELTKNQVSLTCLVKGFYPSDIAVEWESNGQPENNYKTTPPVLVSDGSFTLYSKLTVDKSRWQQGNVFSCSVMHEALHNHYTQKSLSLSPG
heavy: EVQLVESGGGLVKPGGSLRLSCAASGFTFSSYSMNWVRQAPGKGLEWVSSISSSSSYIYYADSVKGRFTISRDNAKNSLYLQMNSLRAEDTAVYYCARGAPIGAAAGWFDPWGQGTLVTVSSASTKGPSVFPLAPSSKSTSGGTAALGCLVKDYFPEPVTVSWNSGALTSGVHTFPAVLQSSGLYSLSSVVTVPSSSLGTQTYICNVNHKPSNTKVDKKVEPKSCDKTHTCPPCPAPELLGGPSVFLFPPKPKDTLMISRTPEVTCVVVDVSHEDPEVKFNWYVDGVEVHNAKTKPREEQYNSTYRVVSVLTVLHQDWLNGKEYKCKVSNKALPAPIEKTISKAKGQPREPQVCTLPPSRDELTENQVSLTCLVKGFYPSDIAVEWESNGQPENNYKTTPPVLDSDGSFFLYSWLTVDKSRWQQGNVFSCSVMHEALHNHYTQKSLSLSPG
light: DIQMTQSPSSVSASVGDRVTITCRASQGISSWLAWYQQKPGKAPKLLIYAASSLQSGVPSRFSGSGSGTDFTLTISSLQPEDFATYYCQQGVSFPRTFGGGTKVEIKRTVAAPSVFIFPPSDEQLKSGTASVVCLLNNFYPREAKVQWKVDNALQSGNSQESVTEQDSKDSTYSLSSTLTLSKADYEKHKVYACEVTHQGLSSPVTKSFNRGEC
[2]
  binding result: no binding (tested: 1600 nM)
